B1: NRC3_wobSeed62_DR2_T20G_o1 (dsDNA)
DNA 1: GCTCTGCTAGGTCAGTTGGGCAGCTAACGAGCTGCCGCGATTGACAGCGTAGAATGAAGG
DNA 2: CCTTCATTCTACGCTGTCAATCGCGGCAGCTCGTTAGCTGCCCAACTGACCTAGCAGAGC
B2: NRC3_wobSeed72_DR2_G5A_o1 (dsDNA)
DNA 1: GCTCAAGTAGGTTACGGGGGCATTCAGGGATGAAGAGCGATTGACAGCGTAGAATGAAGG
DNA 2: CCTTCATTCTACGCTGTCAATCGCTCTTCATCCCTGAATGCCCCCGTAACCTACTTGAGC
B3: NRC3_wobSeed98_DR4_C13A_o1 (dsDNA)
DNA 1: GCACTAGTTGGTAAGCTGAGGTCACACACAATTCGGGCGATTGACAGCGTAGAATGAAGG
DNA 2: CCTTCATTCTACGCTGTCAATCGCCCGAATTGTGTGTGACCTCAGCTTACCAACTAGTGC
B4: NRC3_wobSeed51_DR2_T5C_o1 (dsDNA)
DNA 1: GCCCCCGGAGGACAGAAGGTCAGAGCTGTCCGCTTTGCGATTGACAGCGTAGAATGAAGG
DNA 2: CCTTCATTCTACGCTGTCAATCGCAAAGCGGACAGCTCTGACCTTCTGTCCTCCGGGGGC
B5: NRC3_wobSeed51_DR2_C4G_o1 (dsDNA)
DNA 1: GCCGTCGGAGGACAGAAGGTCAGAGCTGTCCGCTTTGCGATTGACAGCGTAGAATGAAGG
DNA 2: CCTTCATTCTACGCTGTCAATCGCAAAGCGGACAGCTCTGACCTTCTGTCCTCCGACGGC
B6: NRC3_wobSeed51_DR2_G25T_o1 (dsDNA)
DNA 1: GCCCTCGGAGGACAGAAGGTCAGATCTGTCCGCTTTGCGATTGACAGCGTAGAATGAAGG
DNA 2: CCTTCATTCTACGCTGTCAATCGCAAAGCGGACAGATCTGACCTTCTGTCCTCCGAGGGC
B7: NRC3_wobSeed111_DR4_G25T_o1 (dsDNA)
DNA 1: GCCGAACTAGGTCAGAACAGGACATTGAAGGATGATGCGATTGACAGCGTAGAATGAAGG
DNA 2: CCTTCATTCTACGCTGTCAATCGCATCATCCTTCAATGTCCTGTTCTGACCTAGTTCGGC
B8: NRC3_wobSeed46_DR1_A5T_o1 (dsDNA)
DNA 1: GCTTTCCAAGGTGAAAGGTCGTTGATGCACGCCTTGGCGATTGACAGCGTAGAATGAAGG
DNA 2: CCTTCATTCTACGCTGTCAATCGCCAAGGCGTGCATCAACGACCTTTCACCTTGGAAAGC
B9: NRC3_wobSeed46_DR1_C7G_o1 (dsDNA)
DNA 1: GCTTACGAAGGTGAAAGGTCGTTGATGCACGCCTTGGCGATTGACAGCGTAGAATGAAGG
DNA 2: CCTTCATTCTACGCTGTCAATCGCCAAGGCGTGCATCAACGACCTTTCACCTTCGTAAGC
B10: NRC3_wobSeed61_DR2_T12G_o1 (dsDNA)
DNA 1: GCCGTCCAAGGGCAGCAGGTCAGTGAAAGCGACGTGGCGATTGACAGCGTAGAATGAAGG
DNA 2: CCTTCATTCTACGCTGTCAATCGCCACGTCGCTTTCACTGACCTGCTGCCCTTGGACGGC
B11: NRC3_wobSeed115_DR4_A23C_o1 (dsDNA)
DNA 1: GCACAGACAGGTGAGTGAAGGTCACTCAGCTGGACGGCGATTGACAGCGTAGAATGAAGG
DNA 2: CCTTCATTCTACGCTGTCAATCGCCGTCCAGCTGAGTGACCTTCACTCACCTGTCTGTGC
B12: NRC3_wobSeed4_DR0_A24C_o1 (dsDNA)
DNA 1: GCCCTACTGGGCCAAGGTCATTGCTCAGTCAAAGCAGCGATTGACAGCGTAGAATGAAGG
DNA 2: CCTTCATTCTACGCTGTCAATCGCTGCTTTGACTGAGCAATGACCTTGGCCCAGTAGGGC
B13: NRC3_wobSeed112_DR4_C22G_o1 (dsDNA)
DNA 1: GCTAGCCTAGGTCAGATCGGGGCAGTATACGCTATAGCGATTGACAGCGTAGAATGAAGG
DNA 2: CCTTCATTCTACGCTGTCAATCGCTATAGCGTATACTGCCCCGATCTGACCTAGGCTAGC
B14: NRC3_wobSeed112_DR4_A27C_o1 (dsDNA)
DNA 1: GCTAGCCTAGGTCAGATCGGGCCAGTCTACGCTATAGCGATTGACAGCGTAGAATGAAGG
DNA 2: CCTTCATTCTACGCTGTCAATCGCTATAGCGTAGACTGGCCCGATCTGACCTAGGCTAGC
B15: NRC3_wobSeed112_DR4_C23G_o1 (dsDNA)
DNA 1: GCTAGCCTAGGTCAGATCGGGCGAGTATACGCTATAGCGATTGACAGCGTAGAATGAAGG
DNA 2: CCTTCATTCTACGCTGTCAATCGCTATAGCGTATACTCGCCCGATCTGACCTAGGCTAGC
B16: NRC3_wobSeed141_DR5_G15C_o1 (dsDNA)
DNA 1: GCAGTCAAAGTTCACGACGAGGTAACGTAAAGCACGGCGATTGACAGCGTAGAATGAAGG
DNA 2: CCTTCATTCTACGCTGTCAATCGCCGTGCTTTACGTTACCTCGTCGTGAACTTTGACTGC
B17: NRC3_wobSeed12_DR0_T8G_o1 (dsDNA)
DNA 1: GCCCGACGGGGGCAAGGTTACCATAACGCACAGCCAGCGATTGACAGCGTAGAATGAAGG
DNA 2: CCTTCATTCTACGCTGTCAATCGCTGGCTGTGCGTTATGGTAACCTTGCCCCCGTCGGGC
B18: NRC3_wobSeed86_DR3_T17A_o1 (dsDNA)
DNA 1: GCGCTGCTAGGTCAGGATGGTCAGCTAACGGGTACGGCGATTGACAGCGTAGAATGAAGG
DNA 2: CCTTCATTCTACGCTGTCAATCGCCGTACCCGTTAGCTGACCATCCTGACCTAGCAGCGC
B19: NRC3_wobSeed86_DR3_A23T_o1 (dsDNA)
DNA 1: GCGCTGCTAGGTCAGGTTGGTCTGCTAACGGGTACGGCGATTGACAGCGTAGAATGAAGG
DNA 2: CCTTCATTCTACGCTGTCAATCGCCGTACCCGTTAGCAGACCAACCTGACCTAGCAGCGC
B20: NRC3_wobSeed86_DR3_G24A_o1 (dsDNA)
DNA 1: GCGCTGCTAGGTCAGGTTGGTCAACTAACGGGTACGGCGATTGACAGCGTAGAATGAAGG
DNA 2: CCTTCATTCTACGCTGTCAATCGCCGTACCCGTTAGTTGACCAACCTGACCTAGCAGCGC
B21: NRC3_wobSeed65_DR2_T8A_o1 (dsDNA)
DNA 1: GCATATGAAGGTTATCGGGTCATTCAGTTTGCGCATGCGATTGACAGCGTAGAATGAAGG
DNA 2: CCTTCATTCTACGCTGTCAATCGCATGCGCAAACTGAATGACCCGATAACCTTCATATGC
B22: NRC3_wobSeed5_DR0_G9C_o1 (dsDNA)
DNA 1: GCCCTTACCGGTCAAGGTTATAGCACGGGTGGTACGGCGATTGACAGCGTAGAATGAAGG
DNA 2: CCTTCATTCTACGCTGTCAATCGCCGTACCACCCGTGCTATAACCTTGACCGGTAAGGGC
B23: NRC3_wobSeed120_DR4_A17G_o1 (dsDNA)
DNA 1: GCCCGAGTAGGTTACGGGGGGGCATTCAGTGCGAATGCGATTGACAGCGTAGAATGAAGG
DNA 2: CCTTCATTCTACGCTGTCAATCGCATTCGCACTGAATGCCCCCCCGTAACCTACTCGGGC
B24: NRC3_wobSeed123_DR5_C4G_o1 (dsDNA)
DNA 1: GCCGTCGGAGGACAACAGGAGGTCAGAGCTGCCAGAGCGATTGACAGCGTAGAATGAAGG
DNA 2: CCTTCATTCTACGCTGTCAATCGCTCTGGCAGCTCTGACCTCCTGTTGTCCTCCGACGGC
B25: NRC3_wobSeed123_DR5_A15C_o1 (dsDNA)
DNA 1: GCCCTCGGAGGACACCAGGAGGTCAGAGCTGCCAGAGCGATTGACAGCGTAGAATGAAGG
DNA 2: CCTTCATTCTACGCTGTCAATCGCTCTGGCAGCTCTGACCTCCTGGTGTCCTCCGAGGGC
B26: NRC3_wobSeed21_DR0_G17T_o1 (dsDNA)
DNA 1: GCCGTCAAAGTTCAAGTTAACGTAACAGAAAGCAGCGCGATTGACAGCGTAGAATGAAGG
DNA 2: CCTTCATTCTACGCTGTCAATCGCGCTGCTTTCTGTTACGTTAACTTGAACTTTGACGGC
B27: NRC3_wobSeed21_DR0_A19T_o1 (dsDNA)
DNA 1: GCCGTCAAAGTTCAAGGTTACGTAACAGAAAGCAGCGCGATTGACAGCGTAGAATGAAGG
DNA 2: CCTTCATTCTACGCTGTCAATCGCGCTGCTTTCTGTTACGTAACCTTGAACTTTGACGGC
B28: NRC3_wobSeed90_DR3_A8C_o1 (dsDNA)
DNA 1: GCCATACCGGGTCAGCTAGGCCAGAGTAGGGACGGCGCGATTGACAGCGTAGAATGAAGG
DNA 2: CCTTCATTCTACGCTGTCAATCGCGCCGTCCCTACTCTGGCCTAGCTGACCCGGTATGGC
B29: NRC3_wobSeed9_DR0_G21T_o1 (dsDNA)
DNA 1: GCATCTCTAGGTAAAGTTCATTGAAAGATCGATAGAGCGATTGACAGCGTAGAATGAAGG
DNA 2: CCTTCATTCTACGCTGTCAATCGCTCTATCGATCTTTCAATGAACTTTACCTAGAGATGC
B30: NRC3_wobSeed9_DR0_T22C_o1 (dsDNA)
DNA 1: GCATCTCTAGGTAAAGTTCAGCGAAAGATCGATAGAGCGATTGACAGCGTAGAATGAAGG
DNA 2: CCTTCATTCTACGCTGTCAATCGCTCTATCGATCTTTCGCTGAACTTTACCTAGAGATGC
B31: NRC3_wobSeed75_DR3_C6A_o1 (dsDNA)
DNA 1: GCTCTAGGAGGACACGAAGGTCAGAGCTTTCCAGAGGCGATTGACAGCGTAGAATGAAGG
DNA 2: CCTTCATTCTACGCTGTCAATCGCCTCTGGAAAGCTCTGACCTTCGTGTCCTCCTAGAGC
B32: NRC3_wobSeed106_DR4_T28A_o1 (dsDNA)
DNA 1: GCCTCGAAAGGTCGGTTGAGGTGAGTAAACGGATAAGCGATTGACAGCGTAGAATGAAGG
DNA 2: CCTTCATTCTACGCTGTCAATCGCTTATCCGTTTACTCACCTCAACCGACCTTTCGAGGC
B33: NRC3_wobSeed89_DR3_G18A_o1 (dsDNA)
DNA 1: GCCTATGTAGGTTAAGGAGGTCATTCAGTTTGAAAGGCGATTGACAGCGTAGAATGAAGG
DNA 2: CCTTCATTCTACGCTGTCAATCGCCTTTCAAACTGAATGACCTCCTTAACCTACATAGGC

Molecular target: RARb:RXRa (Homo sapiens, UniProt P10826;P19793 full;full)
Assay: no ligand; PBM; 270 nM : 90 nM RXRa; PBS pH 7.4, 2% milk, 0.02% Triton X-100, 1 mM DTT, BSA, 0.4 mg/ml salmon testes DNA
Details: tags: His kept;His cleaved; copies: 1;1; label: surface-attached array probe
Method in brief: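 Binding buffer was PBS pH 7.4 with 2% milk, 0.02% Triton X-100, 1 mM DTT, 0.2 mg/mL BSA and 0.4 mg/ml salmon testes DNA. In it, ligand-free nuclear receptor dimers were incubated 1 h on custom Agilent 4×180K protein-binding microarrays carrying double-stranded probes. Antibodies against each partner (one per run) detected binding, and z-scores were calculated against random background probes after regression normalization of scanned fluorescence.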

Sequence of RARb:RXRa (P10826 whole entry, chain 1 of 2): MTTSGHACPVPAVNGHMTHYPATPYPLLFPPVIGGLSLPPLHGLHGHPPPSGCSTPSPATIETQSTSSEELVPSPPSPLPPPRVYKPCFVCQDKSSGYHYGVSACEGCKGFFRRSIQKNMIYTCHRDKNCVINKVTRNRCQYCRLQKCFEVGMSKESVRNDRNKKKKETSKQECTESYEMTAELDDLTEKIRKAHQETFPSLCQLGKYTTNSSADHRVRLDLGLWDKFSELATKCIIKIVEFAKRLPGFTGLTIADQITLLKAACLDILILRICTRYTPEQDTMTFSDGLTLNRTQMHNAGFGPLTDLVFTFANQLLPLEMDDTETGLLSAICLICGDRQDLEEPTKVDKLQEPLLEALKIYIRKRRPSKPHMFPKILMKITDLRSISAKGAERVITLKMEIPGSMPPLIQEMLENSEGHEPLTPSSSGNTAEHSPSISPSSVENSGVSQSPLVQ
Sequence of RARb:RXRa (P19793 whole entry, chain 2 of 2): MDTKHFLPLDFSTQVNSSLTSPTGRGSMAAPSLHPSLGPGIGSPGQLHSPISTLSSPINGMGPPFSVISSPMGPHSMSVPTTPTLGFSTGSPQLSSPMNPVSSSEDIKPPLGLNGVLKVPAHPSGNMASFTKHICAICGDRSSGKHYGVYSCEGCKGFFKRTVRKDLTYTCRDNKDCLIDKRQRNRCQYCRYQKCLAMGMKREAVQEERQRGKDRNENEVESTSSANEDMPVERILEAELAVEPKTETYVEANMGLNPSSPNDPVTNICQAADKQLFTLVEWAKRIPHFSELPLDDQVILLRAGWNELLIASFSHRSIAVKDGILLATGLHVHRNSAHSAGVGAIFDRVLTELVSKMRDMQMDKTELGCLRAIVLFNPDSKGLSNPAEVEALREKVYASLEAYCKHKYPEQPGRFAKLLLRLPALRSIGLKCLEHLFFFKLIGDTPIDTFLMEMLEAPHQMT

In order of rising binding signal:
1. B28  3.04 PBM z-score against 500 random probes
2. B2  3.05 PBM z-score against 500 random probes
3. B9  3.05 PBM z-score against 500 random probes
4. B19  3.05 PBM z-score against 500 random probes
5. B3  3.06 PBM z-score against 500 random probes
6. B8  3.06 PBM z-score against 500 random probes
7. B18  3.06 PBM z-score against 500 random probes
8. B20  3.06 PBM z-score against 500 random probes
9. B6  3.07 PBM z-score against 500 random probes
10. B12  3.07 PBM z-score against 500 random probes
11. B30  3.07 PBM z-score against 500 random probes
12. B31  3.07 PBM z-score against 500 random probes
13. B7  3.08 PBM z-score against 500 random probes
14. B14  3.08 PBM z-score against 500 random probes
15. B15  3.08 PBM z-score against 500 random probes
16. B21  3.08 PBM z-score against 500 random probes
17. B22  3.08 PBM z-score against 500 random probes
18. B1  3.09 PBM z-score against 500 random probes
19. B10  3.09 PBM z-score against 500 random probes
20. B23  3.09 PBM z-score against 500 random probes
21. B5  3.1 PBM z-score against 500 random probes
22. B13  3.1 PBM z-score against 500 random probes
23. B25  3.1 PBM z-score against 500 random probes
24. B32  3.1 PBM z-score against 500 random probes
25. B24  3.11 PBM z-score against 500 random probes
26. B29  3.11 PBM z-score against 500 random probes
27. B11  3.12 PBM z-score against 500 random probes
28. B33  3.12 PBM z-score against 500 random probes
29. B4  3.13 PBM z-score against 500 random probes
30. B17  3.13 PBM z-score against 500 random probes
31. B16  5.43 PBM z-score against 500 random probes
32. B27  5.43 PBM z-score against 500 random probes
33. B26  5.46 PBM z-score against 500 random probes

Reference: paper PMC6555819, “Comprehensive study of nuclear receptor DNA binding provides a revised framework for understanding receptor specificity”
